The source of these data is patent US20240216517A1 (CELLEMEDY, published 2024).

This experiment deals with T1, human transferrin receptor-Fc tag standard (human, UniProt P02786 89-760).
T1 construct: This is a bought standard coated on the ELISA plate; also called hTfR; not shown: Fc tag
As to the kind of experiment: ELISA, human transferrin receptor-Fc coated on the plate; Kd calculated from an expected saturation point, curve not saturated at 10000 nM. Here is the method:
Then, it was washed 3 times with 200 μl of PBST (PBS+Tween0.05%). An antibody (mouse anti-His tag antibody, Hisprobe) that specifically binds to the hexa-His tag was diluted 1/1000 in PBST, and the diluted solution was treated by 100 μl at room temperature for 1 hour.
Then, it was washed 3 times with 200 μl of PBST (PBS+Tween0.05%). TMB solution expressing coloration by reacting with HRP was treated by 100 μl at room temperature for 15 minutes. After 50 μl of 1M H₂SO₄ solution was treated, optical density was measured with TECAN at a wavelength of 450 nm. This was calculated using the Langmuir equation (Table 5, FIGS. 8 to 10).
FIG. 11 illustrates results of evaluation/comparison of the binding force of huHF_mutant1-dual and huHF_mutant2-dual to hTfR.

T1 sequence (P02786 89-760 limits assumed): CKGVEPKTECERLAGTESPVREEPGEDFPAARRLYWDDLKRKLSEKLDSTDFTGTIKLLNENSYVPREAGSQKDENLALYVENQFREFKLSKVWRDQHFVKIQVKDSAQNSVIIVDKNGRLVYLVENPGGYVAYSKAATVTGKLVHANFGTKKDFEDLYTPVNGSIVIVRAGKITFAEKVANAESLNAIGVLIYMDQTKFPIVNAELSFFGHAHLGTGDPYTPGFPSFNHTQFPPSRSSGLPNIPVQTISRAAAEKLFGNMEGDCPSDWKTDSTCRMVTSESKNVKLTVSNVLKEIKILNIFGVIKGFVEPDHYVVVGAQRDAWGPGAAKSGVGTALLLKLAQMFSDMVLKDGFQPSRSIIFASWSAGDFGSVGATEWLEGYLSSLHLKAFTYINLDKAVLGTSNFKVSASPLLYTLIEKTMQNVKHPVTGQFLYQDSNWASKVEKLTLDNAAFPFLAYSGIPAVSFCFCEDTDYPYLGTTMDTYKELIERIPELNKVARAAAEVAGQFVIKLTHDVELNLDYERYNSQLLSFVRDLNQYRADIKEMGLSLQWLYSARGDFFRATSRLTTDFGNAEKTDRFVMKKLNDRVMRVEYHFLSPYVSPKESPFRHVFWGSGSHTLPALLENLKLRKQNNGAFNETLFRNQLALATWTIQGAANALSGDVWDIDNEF

B1: huHF_Mutant2-dual (designed binder)
chain: MTTASTSQVRQNYHAASEAAINAQINLELYASYVYLSMSYYFDRDDVALKNFAKYFLHQSHEEREHAEKLMKLQNQRGGRIALADIQKPDCDGGSYGSLYAFDIDWESGLNAMECALHLEKNVNQSLLALHALATAKNDPHLCDFIETHYLNEQVKAIKELGDHVTNLRKMGAPESGLAEYLFDKHTLGDSDNESMPSFITLASLSTWEGYFDF
notes: It self-assembles into a 24-mer nanoparticle
Turning to B1, the Kd is about 4.4 µM.

A word on the Kd: it is the constant that tells how readily two partners part at equilibrium.
